Experimental data from US20090215878.

Tested on: ZFP-TF 8982-KRAB
Test: cell_activity
Conditions: rat DRG neurons, lentiviral; Nav1.8 mRNA vs GFP control; which of SEQ 2 (GAA) or SEQ 3 (CAA) is the rat site is not stated

GAAGAAGAATGAGAAGATG (double strand) [Nav1.8 target site (GAA variant)]
activity (fold repression): 10
